Assay results from patent US20240293499A1.

Tests used:
[1] = target: hVISTA-COMP-his, pentameric form comprising the extracellular IgV domain of human VISTA (human) (UniProt Q9H7M9); assay: SPR (BIAcore T200), single-cycle kinetics, hVISTA-COMP-his captured on anti-His chip, mAb injected at 20, 40, 80, 160, 320 nM, 1:1 fit
[2] = target: T1, mVISTA-COMP-his, pentameric form comprising the extracellular IgV domain of murine VISTA (mouse) (UniProt Q9D659); assay: SPR (BIAcore T200), single-cycle kinetics, mVISTA-COMP-his captured on anti-His chip, mAb injected at 20, 40, 80, 160, 320 nM, 1:1 fit
T1 sequence (Q9D659 whole entry, looked up): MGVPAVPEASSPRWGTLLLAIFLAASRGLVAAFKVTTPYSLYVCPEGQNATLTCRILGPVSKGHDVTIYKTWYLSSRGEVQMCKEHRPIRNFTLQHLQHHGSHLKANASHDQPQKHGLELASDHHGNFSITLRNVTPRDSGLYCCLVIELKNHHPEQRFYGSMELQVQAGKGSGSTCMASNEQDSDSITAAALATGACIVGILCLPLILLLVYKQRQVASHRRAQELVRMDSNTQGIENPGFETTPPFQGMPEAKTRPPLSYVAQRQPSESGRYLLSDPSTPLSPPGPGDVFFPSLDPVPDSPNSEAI

[3] = target: T1, mVISTA-COMP-his, pentameric form comprising the extracellular IgV domain of murine VISTA (mouse); assay: SPR (BIAcore T200), single-cycle kinetics; mVISTA-COMP-his captured on anti-His chip, mAb as analyte; 1:1 Langmuir fit
[4] = target: hVISTA-COMP-his, pentameric form comprising the extracellular IgV domain of human VISTA (human) (UniProt Q9H7M9); assay: SPR (BIAcore T200), single-cycle kinetics; hVISTA-COMP-his captured on anti-His chip, mAb as analyte; 1:1 Langmuir fit
[5] = target: T2, murine VISTA on mouse splenocytes (macrophages, neutrophils, CD4+ T cells) (mouse) (UniProt Q9D659); assay: cell-based or functional assay
T2 sequence (looked up): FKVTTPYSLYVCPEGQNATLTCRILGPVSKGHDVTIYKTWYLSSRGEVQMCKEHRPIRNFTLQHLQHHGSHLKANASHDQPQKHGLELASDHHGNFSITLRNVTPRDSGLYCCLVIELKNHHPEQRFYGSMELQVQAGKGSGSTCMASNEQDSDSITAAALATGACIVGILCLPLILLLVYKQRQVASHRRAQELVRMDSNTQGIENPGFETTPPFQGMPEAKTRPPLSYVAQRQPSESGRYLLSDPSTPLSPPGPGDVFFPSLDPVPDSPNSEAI

Sequence of hVISTA-COMP-his, pentameric form comprising the extracellular IgV domain of human VISTA (human) (Q9H7M9 33-194): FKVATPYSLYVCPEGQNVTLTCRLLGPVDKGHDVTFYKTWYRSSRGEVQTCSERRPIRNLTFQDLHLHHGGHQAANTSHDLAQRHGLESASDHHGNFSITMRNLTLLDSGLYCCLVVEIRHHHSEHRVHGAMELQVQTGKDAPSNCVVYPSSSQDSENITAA

B1: rat anti-hmVISTA mAb 7C6 (antibody, part only; not given: light chain, rat IgG2a, V domains shown, part only)
VH: QVQLQQSGAELAKPGSSVKISCKASGYTFTSYYISWIKQTTGQGLEYIGYINTGSGGTNYNEKFKGKATLTVDKSSSTAFMQLSSLTPDDSAVYYCAREGTFYSGDVGYWYFDFWGPGSMVTVSS
In the case of B1, the Kd [1] is reported as 838 nM, the koff [1] is reported as 0.000331 s⁻¹ and the kon [1] is reported as 395 M⁻¹ s⁻¹. The Kd [2] was 3 nM, the koff [2] was 0.000177 s⁻¹ and the kon [2] was 59000 M⁻¹ s⁻¹. It also gave a Kd [3] of 3 nM, a Kd [4] of 840 nM and a reduction of proliferation of ConA-stimulated CD4+ T cells, mouse splenocytes [5] of 4%.
